The target of data set [1] is T1, Bovine serum albumin (BSA) (Bos taurus, UniProt P02769 25-607). Put plainly: SYBR Green I fluorescence titration.
Data set [2] deals with T1, Bovine serum albumin (BSA). Put plainly: SYBR Green I fluorescence titration. The source holds these as a separate data set.

Where two headings read alike, the source gives them in different places.

T1 sequence (P02769 25-607): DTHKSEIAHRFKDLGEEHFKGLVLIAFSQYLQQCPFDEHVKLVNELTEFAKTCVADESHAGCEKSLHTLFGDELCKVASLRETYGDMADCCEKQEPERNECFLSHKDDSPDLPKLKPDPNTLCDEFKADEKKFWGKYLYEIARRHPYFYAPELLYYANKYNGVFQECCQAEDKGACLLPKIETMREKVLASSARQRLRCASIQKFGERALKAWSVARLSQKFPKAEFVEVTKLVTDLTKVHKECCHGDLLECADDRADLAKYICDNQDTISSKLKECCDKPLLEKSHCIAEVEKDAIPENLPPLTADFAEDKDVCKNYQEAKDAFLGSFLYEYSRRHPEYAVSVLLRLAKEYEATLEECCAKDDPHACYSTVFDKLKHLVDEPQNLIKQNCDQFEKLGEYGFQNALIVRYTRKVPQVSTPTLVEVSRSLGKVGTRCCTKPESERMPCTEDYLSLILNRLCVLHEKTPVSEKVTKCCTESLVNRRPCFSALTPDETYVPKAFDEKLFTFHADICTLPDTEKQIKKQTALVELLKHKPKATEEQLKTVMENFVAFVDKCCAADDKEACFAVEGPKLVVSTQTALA

B1: Ni_apt (ssDNA)
DNA: AAAAAAAAAAGCAGCACAGAGGTCAGATGGTATCGAGCGCAGGGCCGCCTTTGTT
For B1, the Kd in data set [1] stood at 120 nM.

Molecule AGCAGCACAGAGGTCAGATGGTATCGAGCGCAGGGCCGCCTTTGTT (ssDNA) [R_apt] yielded a Kd in data set [2] of 20 nM.

As usually defined, the Kd is the equilibrium constant for the complex coming apart. Higher therefore signals weaker binding.

(Values after publication doi:10.1101/2025.03.04.641353.)
